Laboratory results: US20240245795A1, “PREPARATION METHOD AND APPLICATION OF ANTIBODY DRUG CONJUGATE” (priority 2021, published 2024)

Test system: Human lung squamous carcinoma cells NCI-H2170
Test: In vivo anti-tumor experiment (5), NCI-H2170 xenograft
Design: species or system female nude mice
Conditions: 5 mg/kg i.v. single dose
Protocol: Human lung squamous carcinoma cells NCI-H2170 (ATCC) were suspended in physiological saline. 4×10^7 cells were subcutaneously transplanted into the right flank of female nude mice, which were randomized into groups on day 6. Taking the grouping day as day 0, Antibody Conjugate 13, DS-1062a (the positive control drug) and the hIgG-A-11 conjugate as a negative control group were administered intravenously to the tail at a dose of 5 mg/kg respectively on day 0.

B1: DS-1062a (conjugate, chains of the INN, looked up)
VH: QVQLVQSGAEVKKPGASVKVSCKASGYTFTTAGMQWVRQAPGQGLEWMGWINTHSGVPKYAEDFKGRVTISADTSTSTAYLQLSSLKSEDTAVYYCARSGFGSSYWYFDVWGQGTLVTVSS
VL: DIQMTQSPSSLSASVGDRVTITCKASQDVSTAVAWYQQKPGKAPKLLIYSASYRYTGVPSRFSGSGSGTDFTLTISSLQPEDFAVYYCQQHYITPLTFGQGTKLEIK
modifications: deruxtecan payload
With B1 as the molecule, how does the anti-tumor activity read?
Its anti-tumor activity is “showed anti-tumor activity”.
